Self-cleavage data for 167 variants are collected here from the RNAGym collection of RNA variant scans (doi:10.7554/elife.90254).

Sequences and labels used below:
B1: OR4K15 (parent)
chain: GUUAACGGUCAUAGGCCAUGGAAACUAGGAGCACCAUUUCGCUGCCAGUGAAGAAAUGAACAAAGAAAAUCUGGGCCAGGCAGGCAUCAAAAGAAAUAGUCUUGCGCUCAACCAGAAAGUCUGUAAUCAUUUUAAGGGUA

The variants in the series derive from B1. The series can be described thus: self-cleavage, relative activity (ratio to wild type); higher = more cleavage; in vitro, sequencing; the parent is a self-cleaving ribozyme.
Consider A62G U70C, for which the self-cleavage turned out to be 0.47. To A62G U70A belongs 1.59; to A62U C88U, 2.34. Regarding A62G U72C, the self-cleavage was 0.24.

In the case of A62G A95U, the self-cleavage turned out to be 2.

Turning to A62U A125G, the self-cleavage came out at 0.71. A62U A116G: the self-cleavage is 1.13. The value for A63G U103C was 1.38. The value for A63G U103A was 0.88; that for A64C A68G was 1.44. The value for A63G A91G was 0.98; that for A64C A96G was 1.27; that for A62U U102C was 1.91. In the case of A62G U130G, the self-cleavage was determined as 1.06. The value for A62G U130C was 1.15. The value for A63U G99U was 1.03; that for A63G G79A was 0.11. To A62U A82G belongs 0.67; to A63G C105U, 0.05.

In the case of A62G G75C, the self-cleavage was 0.18.

In the case of A62G G75U, the self-cleavage came out at 0.15. The value for A62G U127C was 0.38. With A64C A82U, the self-cleavage came out at 0.26. Regarding A63G U97A, the self-cleavage stood at 1.94. To A63U A98U belongs 1.84. To A63G U108C belongs 0.02; to A63G U108A, 0.01; to A63G U108G, 0.03. A63G A68G: the self-cleavage came out at 1.41. To A63G A68C belongs 2.21; to A62U A66G, 1.58; to A63G G83A, 1.84. To A63U A118U belongs 1.02; to A63G A116G, 1.17; to A62G A89U, 1.85. The value for A63G U122C was 1.16; that for A63G U122A was 1.47; that for A63U U100A was 0.96.

Consider A63G A67U, for which the self-cleavage was 1.45. In the case of A63G A67G, the self-cleavage was 1.6.

In the case of A62G G138A, the self-cleavage is 1.04. With A63G U100C, the self-cleavage amounted to 2.31. The value for A62G C105A was 0.03. The value for A63G U133C was 1.18; that for A64C A69U was 2.61. To A62G U108A belongs 0.01; to A62G A96U, 1.26; to A62U U132A, 2.19. For the variant A63U U131A, the self-cleavage was determined as 2.65. The value for A63U U131C was 1.33. A62G C76G: the self-cleavage came to 0.06. The value for A63U U103A was 0.49.

Take A62U A63U: the self-cleavage was determined as 1.75. Turning to A63U U70C, the self-cleavage came to 1.68. To A63U A126G belongs 1.31.

For the variant A63G A86G, the self-cleavage came out at 1.47. To A63G A86C belongs 1.21; to A63G A129U, 0.61; to A63G A129G, 0.9. The value for A62G A116G was 0.64; that for A63G A125G was 0.64; that for A62G C113U was 0.14. To A62U A69G belongs 0.81. For the variant A62G A135U, the self-cleavage is 1.67. Regarding A62U A110G, the self-cleavage was 0.14. To A62U A86G belongs 1.88. To A62G G73A belongs 0.15. The value for A63G G84A was 1.86. As for A63U A69G, the self-cleavage worked out at 0.49. The value for A63G A118U was 0.84. To A63G A118G belongs 0.83. The value for A62U A94G was 1.69; that for A62U A90G was 1.26.

A62U A118U: the self-cleavage worked out at 0.82. To A63G A111G belongs 0.02; to A63G A111C, 0.02.

Take A64C G80A: the self-cleavage is 0.2. The value for A62G A91G was 1.12. The value for A62U G93A was 2.2. As to A63G U72G, the self-cleavage came out at 0.29. The value for A63U A92G was 1.88. To A63G U127C belongs 0.58; to A63G U127A, 1.47; to A63G C128U, 1.95. As to A62G C112U, the self-cleavage worked out at 0.01.

With A62U G83A, the self-cleavage was 1.98. As for A63G U87C, the self-cleavage was determined as 1.59. To A63G U87A belongs 2.02; to A62G A134U, 1.75.

As to A63C U132C, the self-cleavage was 2.13. The value for A62G A92G was 1.22. To A62G C101U belongs 0.41; to A63C A90G, 1.79; to A62U U130C, 0.84. To A63G U124C belongs 1.17. For the variant A62G A111G, the self-cleavage was determined as 0.02.

For A62G A94U, the self-cleavage was 2.08.

For A63U A68G, the self-cleavage came out at 0.87. For A63U A90G, the self-cleavage came to 1.76. To A62G U120G belongs 0.84; to A62G U120C, 1.07; to A62U U72C, 0.19. To A62G G80A belongs 0.35; to A62G G80C, 0.13; to A62G A98G, 0.4.

As to A62G A98U, the self-cleavage amounted to 1.39.

For A63U U97C, the self-cleavage was 1.05.

On to A63G C88U, for which the self-cleavage is 1.69.

Take A62G G84C: the self-cleavage stood at 0.49. To A62G G84A belongs 1.73; to A62G C88G, 1.14. The value for A62G A110C was 0.34; that for A63G G99U was 1.14; that for A62G U124C was 0.94. To A62G U124G belongs 1.13; to A62G G106U, 0.01. Regarding A63G U120C, the self-cleavage came out at 1.27. The value for A63G U120A was 0.94; that for A63U A89C was 1.22. The value for A63C U139C was 1.97; that for A62G C77U was 2.24. The value for A63G G123A was 2.17; that for A62G U133A was 1.51.

Turning to A62G U133C, the self-cleavage stood at 1.14. To A62U A96G belongs 1.69.

Regarding A63G U139C, the self-cleavage is 1.1.

A63G U131G: the self-cleavage was 1.99. Turning to A63G A66G, the self-cleavage was 1.7. To A63G A66C belongs 0.27; to A62G C81U, 0.26; to A62G U103C, 0.98. To A62G U97C belongs 1.34; to A63U A91U, 1.05. To A63G A78U belongs 0.22; to A63G A78G, 0.31; to A62G A114U, 0.02. A63U A96U: the self-cleavage came to 2.14. In the case of A63U U87A, the self-cleavage was determined as 1.18. To A62U C85U belongs 1.31. To A64C U70C belongs 1.18; to A63C C81U, 0.41. To A62U A64U belongs 1.06; to A62U A64G, 1.46. For A62U A68G, the self-cleavage stood at 1.4. Regarding A62G U132G, the self-cleavage was 0.5. The value for A62G U132C was 1.59; that for A63G A95G was 2.26. The value for A62U A117G was 1.64. As to A63G A92G, the self-cleavage was 1.66. To A62U U87C belongs 1.57.

For the variant A62U A92G, the self-cleavage was 1.34. In the case of A62G U102C, the self-cleavage stood at 1.19. The value for A62U G75A was 0.06; that for A63G A82U was 0.24. To A63G A82G belongs 0.74; to A63U A86C, 1.78. In the case of A62U A111U, the self-cleavage was determined as 0.07. With A62G C109U, the self-cleavage turned out to be 0.53. The value for A63U U108C was 0.01; that for A63G A94G was 1.98. To A63G A114G belongs 0.86.

For the variant A62U A140G, the self-cleavage came out at 0.67. The value for A62G A117C was 0.69; that for A62G U122G was 2.99; that for A62G U122C was 1.27.

With A62U A67C, the self-cleavage stood at 1.64. To A62U A67G belongs 1.19.
